Source: patent publication US20250388682A1 (EPIBIOLOGICS, published 2025)

B1: EPI1022-1 (Duligotuzumab/Mav2) (bispecific antibody, human IgG1, kappa)
heavy: not shown
light: DIQMTQSPSSLSASVGDRVTITCRASQNIATDVAWYQQKPGKAPKLLIYSASFLYSGVPSRFSGSGSGTDFTLTISSLQPEDFATYYCQQSEPEPYTFGQGTKVEIKRTVAAPSVFIFPPSDEQLKSGTASVVCLLNNFYPREAKVQWKVDNALQSGNSQESVTEQDSKDSTYSLSSTLTLSKADYEKHKVYACEVTHQGLSSPVTKSFNRGEC
chain: not shown
B2: EPI1527-1 (Duligotuzumab/EgB4) (bispecific antibody, human IgG1, kappa)
heavy: not shown
light: DIQMTQSPSSLSASVGDRVTITCRASQNIATDVAWYQQKPGKAPKLLIYSASFLYSGVPSRFSGSGSGTDFTLTISSLQPEDFATYYCQQSEPEPYTFGQGTKVEIKRTVAAPSVFIFPPSDEQLKSGTASVVCLLNNFYPREAKVQWKVDNALQSGNSQESVTEQDSKDSTYSLSSTLTLSKADYEKHKVYACEVTHQGLSSPVTKSFNRGEC
chain: not shown
B3: EPI873 (hu15G11v5/Mav2) (bispecific antibody, human IgG1, kappa)
heavy: not shown
light: DIQMTQSPSSLSASVGDRVTITCRASDNLYSNLAWYQQKPGKSPKLLVYDATNLADGVPSRFSGSGSGTDYTLTISSLQPEDFATYYCQHFWGTPLTFGQGTKVEIKRTVAAPSVFIFPPSDEQLKSGTASVVCLLNNFYPREAKVQWKVDNALQSGNSQESVTEQDSKDSTYSLSSTLTLSKADYEKHKVYACEVTHQGLSSPVTKSFNRGEC
chain: not shown
B4: EPI1556-1 (hu15G11v5/EgB4) (bispecific antibody, human IgG1, kappa)
heavy: not shown
light: DIQMTQSPSSLSASVGDRVTITCRASDNLYSNLAWYQQKPGKSPKLLVYDATNLADGVPSRFSGSGSGTDYTLTISSLQPEDFATYYCQHFWGTPLTFGQGTKVEIKRTVAAPSVFIFPPSDEQLKSGTASVVCLLNNFYPREAKVQWKVDNALQSGNSQESVTEQDSKDSTYSLSSTLTLSKADYEKHKVYACEVTHQGLSSPVTKSFNRGEC
chain: not shown

These binders were tested against Epidermal Growth Factor Receptor (EGFR) (human, UniProt P00533 25-1210) (assay: cell-based or functional assay).
For B1, the “EGFR cell surface removal (percent; flow cytometry with a labeled anti-EGFR antibody after 24 hours at 50 nM)” value was 75.1%.
In the case of B2, the “EGFR cell surface removal (percent; flow cytometry with a labeled anti-EGFR antibody after 24 hours at 50 nM)” value is reported as 78.6%.
In the case of B3, the “EGFR cell surface removal (percent; flow cytometry with a labeled anti-EGFR antibody after 24 hours at 50 nM)” value is reported as 76.4%.
In the case of B4, the “EGFR cell surface removal (percent; flow cytometry with a labeled anti-EGFR antibody after 24 hours at 50 nM)” value is reported as 69.2%.
